Assay [1] concerns the target T1, PARP5A-GFP fusion protein (UniProt O95271 1-1327).
T1 construct: Expressed in HeLa S3 cells from pEGFP-C1; also called tankyrase 1-GFP; not shown: EGFP (green fluorescent protein) encoded by vector pEGFP-C1, located N-terminal (5') to the PARP
T1 sequence (looked up): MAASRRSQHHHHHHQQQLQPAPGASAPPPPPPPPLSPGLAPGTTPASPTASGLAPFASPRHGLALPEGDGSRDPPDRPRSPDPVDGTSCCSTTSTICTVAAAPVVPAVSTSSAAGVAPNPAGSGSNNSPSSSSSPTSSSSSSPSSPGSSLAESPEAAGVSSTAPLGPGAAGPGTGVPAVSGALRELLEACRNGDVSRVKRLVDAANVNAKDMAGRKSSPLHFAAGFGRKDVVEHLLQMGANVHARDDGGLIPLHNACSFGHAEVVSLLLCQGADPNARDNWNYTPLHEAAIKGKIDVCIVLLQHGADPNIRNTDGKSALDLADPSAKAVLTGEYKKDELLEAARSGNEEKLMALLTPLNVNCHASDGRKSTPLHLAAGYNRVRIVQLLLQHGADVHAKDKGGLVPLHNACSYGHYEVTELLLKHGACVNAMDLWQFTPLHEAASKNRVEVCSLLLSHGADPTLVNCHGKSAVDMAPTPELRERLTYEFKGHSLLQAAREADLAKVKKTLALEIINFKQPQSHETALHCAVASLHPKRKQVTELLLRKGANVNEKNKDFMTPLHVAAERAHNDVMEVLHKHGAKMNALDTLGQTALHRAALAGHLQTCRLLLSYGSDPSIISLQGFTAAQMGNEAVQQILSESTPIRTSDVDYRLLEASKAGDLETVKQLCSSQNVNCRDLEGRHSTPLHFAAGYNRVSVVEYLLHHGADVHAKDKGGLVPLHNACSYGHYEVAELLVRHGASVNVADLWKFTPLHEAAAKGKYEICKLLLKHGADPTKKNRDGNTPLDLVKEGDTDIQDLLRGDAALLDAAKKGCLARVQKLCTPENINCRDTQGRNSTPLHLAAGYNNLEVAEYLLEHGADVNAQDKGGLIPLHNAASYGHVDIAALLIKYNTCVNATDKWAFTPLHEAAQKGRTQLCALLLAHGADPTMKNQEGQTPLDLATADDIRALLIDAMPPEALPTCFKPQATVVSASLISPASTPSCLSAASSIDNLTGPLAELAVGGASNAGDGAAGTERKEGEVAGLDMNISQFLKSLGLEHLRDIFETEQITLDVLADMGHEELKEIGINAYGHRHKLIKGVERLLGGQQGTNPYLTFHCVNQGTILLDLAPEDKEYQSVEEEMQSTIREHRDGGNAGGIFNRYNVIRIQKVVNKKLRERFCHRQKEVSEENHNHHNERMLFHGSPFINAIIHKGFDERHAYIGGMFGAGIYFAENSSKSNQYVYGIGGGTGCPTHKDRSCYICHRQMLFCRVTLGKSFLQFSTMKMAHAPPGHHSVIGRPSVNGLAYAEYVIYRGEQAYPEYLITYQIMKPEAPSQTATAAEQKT
Nature of the assay: co-immunoprecipitation: anti-GFP IP from lysate of transfected HeLa S3 cells (0 or 20 nM pateamine A, 30 min), immunoblot with anti-LSM1. The procedure: (§1) FIG. 25C is a picture of several immunoblots of a 4-12% SDS-PAGE gel containing proteins immunoprecipitated with an anti-GFP antibody from lysate from HeLa S3 cells transfected with a pEGFP-C1 plasmid expressing GFP, PARP5A-GFP, PARP12-GFP, PARP13-GFP, PARP13.1-GFP, or PARP15-GFP following treatment with 0 or 20 nM pateamine A for 30 minutes. The immunoblots were developed using one of the following antibodies: anti-Agog, anti-DDX6, anti-LSM1, anti-PABP, anti-FMRP, anti-eIF1A, anti-eIF2a, anti-eIF3η, anti-eIF4A1, and anti-eIF4E.
(§2) Data from a separate set of experiments indicate that several stress granule-associated proteins bind to the PARP13-GFP, PARP12-GFP, and PARP5A-GFP fusion proteins. In these experiments, HeLa S3 cells were transfected with a pEGFP-C1 plasmid encoding a PARP13-GFP, PARP12-GFP, or PARP5A-GFP fusion protein and treated with 0 or 20 nM pateamine A for 30 minutes. Cell lysates from the cells were immunoprecipitated using an anti-GFP antibody and the immunoprecipitated proteins were electrophoresed using 4-12% SDS-PAGE. The resulting proteins were transferred to a membrane and immunoblotted using commercially-available antibodies specific for different stress granule-associated proteins: Ago2, DDX6, LSM1, PABP, FMRP, eIF1A, eIF2α, eIF3η, eIF4A1, and eIF4E.
On the technique in general: In western blotting, separated proteins are transferred to a membrane and probed.

The target of assay [2] is T2, PARP12-GFP fusion protein (UniProt Q9H0J9 1-701).
T2 construct: Expressed in HeLa S3 cells from pEGFP-C1; not shown: EGFP (green fluorescent protein) encoded by vector pEGFP-C1, located N-terminal (5') to the PARP
T2 sequence (looked up): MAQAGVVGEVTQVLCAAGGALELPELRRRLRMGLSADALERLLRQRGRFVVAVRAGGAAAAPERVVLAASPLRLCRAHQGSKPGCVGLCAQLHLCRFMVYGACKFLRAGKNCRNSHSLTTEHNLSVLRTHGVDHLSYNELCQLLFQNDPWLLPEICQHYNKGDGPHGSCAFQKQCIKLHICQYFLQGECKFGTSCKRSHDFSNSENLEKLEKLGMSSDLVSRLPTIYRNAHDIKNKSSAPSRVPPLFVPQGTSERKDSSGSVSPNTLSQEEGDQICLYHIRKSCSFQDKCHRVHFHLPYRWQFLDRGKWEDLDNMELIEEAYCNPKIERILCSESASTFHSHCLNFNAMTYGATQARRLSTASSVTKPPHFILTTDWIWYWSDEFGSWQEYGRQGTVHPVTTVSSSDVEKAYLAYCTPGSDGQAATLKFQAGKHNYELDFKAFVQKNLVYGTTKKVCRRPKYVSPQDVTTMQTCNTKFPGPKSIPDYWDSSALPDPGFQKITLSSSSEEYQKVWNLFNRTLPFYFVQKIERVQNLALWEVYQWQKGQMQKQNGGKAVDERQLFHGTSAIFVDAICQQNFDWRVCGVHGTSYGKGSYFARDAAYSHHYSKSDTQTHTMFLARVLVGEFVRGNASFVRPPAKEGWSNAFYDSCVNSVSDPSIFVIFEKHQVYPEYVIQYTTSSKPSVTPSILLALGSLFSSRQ
The description is as above. Here is the method:
as §1, §2

B1: LSM1 (other, human (HeLa S3 cells), UniProt O15116 1-133, looked up)
single chain: MNYMPGTASLIEDIDKKHLVLLRDGRTLIGFLRSIDQFANLVLHQTVERIHVGKKYGDIPRGIFVVRGENVVLLGEIDLEKESDTPLQQVSIEEILEEQRVEQQTKLEAEKLKVQALKDRGLSIPRADTLDEY
notes: endogenous protein in the cell lysate; member of the group m8
Turning to B1, the binding result in assay [1] and in assay [2] was “no binding” in each case.

The values are drawn from patent publication US20110097328A1 (MIT, published 2011).
